Assay results reported in patent publication JP2008278814A (dated 2008).

Legend:
[1] = target: T1, GITR断片(アミノ酸翻訳部分N末端1-65番目)−HIDE1の膜貫通領域−mycタグ (human, UniProt Q9Y5U5 26-65); assay: immunoprecipitation from 293T lysate, Western blot with HRP-labelled anti-myc antibody
T1 construct: domain: 膜貫通領域; Includes the signal peptide as encoded; no cleavage site stated; also called N末端1-65番目のGITR断片; not shown: HIDE1 transmembrane region; myc tag
T1 chain: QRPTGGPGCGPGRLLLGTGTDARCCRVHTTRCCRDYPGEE

[2] = target: T2, GITR断片(アミノ酸翻訳部分N末端1-72番目)−HIDE1の膜貫通領域−mycタグ (human, UniProt Q9Y5U5 26-72); assay: as above
T2 construct: domain: 膜貫通領域; also called N末端1-72番目のGITR断片; not shown: HIDE1 transmembrane region; myc tag
T2 chain: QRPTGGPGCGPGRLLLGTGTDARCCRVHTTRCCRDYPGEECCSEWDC

[3] = target: T3, GITR断片(アミノ酸翻訳部分N末端1-60番目)−HIDE1の膜貫通領域−mycタグ (human); assay: as above
T3 construct: domain: 膜貫通領域; Includes the signal peptide as encoded; no cleavage site stated; also called GITRの1-180塩基長; N末端1-60番目のGITR断片; not shown: HIDE1 transmembrane region; myc tag
T3 chain: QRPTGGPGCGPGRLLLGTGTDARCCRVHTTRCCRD

[4] = target: T4, ヒトGITR(glucocorticoid-induced tumor necrosis factor receptor-family related gene) (human, UniProt Q9Y5U5 26-241); assay: cell ELISA and flow cytometry of hybridoma supernatant on 293T/GITR cells
T4 construct: whole, on cells; also called TNFRSF18
T4 sequence (looked up): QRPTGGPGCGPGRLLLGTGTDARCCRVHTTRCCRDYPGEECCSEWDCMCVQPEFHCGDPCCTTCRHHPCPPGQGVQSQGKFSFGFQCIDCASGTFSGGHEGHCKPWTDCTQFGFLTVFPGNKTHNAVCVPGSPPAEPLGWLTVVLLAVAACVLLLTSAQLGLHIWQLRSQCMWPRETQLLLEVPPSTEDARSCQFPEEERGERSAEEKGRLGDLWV

Measured: binding result

B1: 抗ヒトGITRモノクローナル抗体(40-44抗体) (antibody, V domains shown)
VH: QVQLQQSGAELVRPGTSVKVSCKASGYAFSNYLIEWVKQRPGQGLEWIGVINPGSGSTNYNEKFKGKATLTADKSSSTAYMQLSSLTSDDSAVYFCARRTYYYGSNYYAMDYWGQGTSVTVSS
VL: DIQMNQSPSSLSSSLGDTITITCHASQNINVWLSWYQQKPGNIPKLLIYKASNLHTGVPSRFSGSGSGTGFTLTISSLQPEDIATYYCQQGQSYPFTFGSGTKLEIK
notes: Mouse (Balb/c) hybridoma monoclonal antibody; mouse IgG2A and mouse IgG1 were used as controls in different experiments; also called 抗ヒトGITR抗体
binds: all assays above
